Laboratory results published in patent publication US9962447.

Key:
Assay in all cases: cell-based or functional assay
[1] = target: human DOP receptor (human) (UniProt P41143)
[2] = target: human NOP recombinant receptor (N/OFQ peptide receptor) (human) (UniProt P41146)
[3] = target: human MOP receptor (human) (UniProt P35372)
[4] = target: human KOP receptor (human) (UniProt P41145)
[5] = target: native mouse NOP receptor (mouse vas deferens) (mouse) (UniProt P35377)
native mouse NOP receptor (mouse vas deferens) (mouse), sequence (P35377 whole entry): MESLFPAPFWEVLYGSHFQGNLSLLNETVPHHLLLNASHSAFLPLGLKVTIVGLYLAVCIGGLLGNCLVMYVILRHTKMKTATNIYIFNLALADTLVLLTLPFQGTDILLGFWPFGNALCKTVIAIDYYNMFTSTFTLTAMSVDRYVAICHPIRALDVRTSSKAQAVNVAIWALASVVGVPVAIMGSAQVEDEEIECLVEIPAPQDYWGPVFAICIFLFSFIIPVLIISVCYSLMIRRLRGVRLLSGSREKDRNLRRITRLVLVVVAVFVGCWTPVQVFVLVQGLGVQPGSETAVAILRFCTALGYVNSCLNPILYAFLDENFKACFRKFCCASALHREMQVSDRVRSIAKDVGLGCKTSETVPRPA

human KOP receptor (human), sequence (P41145 whole entry): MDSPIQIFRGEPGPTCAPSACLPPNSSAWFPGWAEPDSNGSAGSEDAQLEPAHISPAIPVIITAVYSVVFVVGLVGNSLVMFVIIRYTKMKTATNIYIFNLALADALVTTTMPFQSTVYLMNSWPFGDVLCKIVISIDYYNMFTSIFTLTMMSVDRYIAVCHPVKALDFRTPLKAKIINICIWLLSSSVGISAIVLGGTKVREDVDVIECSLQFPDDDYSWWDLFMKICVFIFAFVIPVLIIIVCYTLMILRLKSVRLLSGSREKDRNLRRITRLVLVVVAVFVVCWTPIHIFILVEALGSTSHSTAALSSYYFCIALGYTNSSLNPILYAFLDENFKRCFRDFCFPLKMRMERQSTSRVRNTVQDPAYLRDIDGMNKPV
human DOP receptor (human), sequence (P41143 whole entry): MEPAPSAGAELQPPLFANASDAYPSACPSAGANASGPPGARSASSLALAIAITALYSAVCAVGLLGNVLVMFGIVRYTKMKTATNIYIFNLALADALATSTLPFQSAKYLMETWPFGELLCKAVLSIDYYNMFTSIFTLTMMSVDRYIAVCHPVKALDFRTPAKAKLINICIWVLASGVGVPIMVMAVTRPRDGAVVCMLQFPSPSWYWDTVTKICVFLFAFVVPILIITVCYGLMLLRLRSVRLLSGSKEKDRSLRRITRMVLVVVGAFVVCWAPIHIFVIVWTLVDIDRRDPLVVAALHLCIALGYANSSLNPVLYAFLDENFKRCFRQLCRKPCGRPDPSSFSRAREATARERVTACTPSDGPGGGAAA
human MOP receptor (human), sequence (P35372 whole entry): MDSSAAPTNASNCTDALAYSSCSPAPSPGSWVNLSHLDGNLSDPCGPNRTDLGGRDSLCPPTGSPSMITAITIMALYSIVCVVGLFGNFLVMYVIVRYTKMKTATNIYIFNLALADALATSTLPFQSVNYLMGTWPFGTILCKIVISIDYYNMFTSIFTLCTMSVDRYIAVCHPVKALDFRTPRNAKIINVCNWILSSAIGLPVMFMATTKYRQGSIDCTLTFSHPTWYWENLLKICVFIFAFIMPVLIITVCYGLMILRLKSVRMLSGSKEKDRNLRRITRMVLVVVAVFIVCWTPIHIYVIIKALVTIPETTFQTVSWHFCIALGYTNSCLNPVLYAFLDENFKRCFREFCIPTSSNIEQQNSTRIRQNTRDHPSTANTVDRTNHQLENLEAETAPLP
human NOP recombinant receptor (N/OFQ peptide receptor) (human), sequence (P41146 whole entry): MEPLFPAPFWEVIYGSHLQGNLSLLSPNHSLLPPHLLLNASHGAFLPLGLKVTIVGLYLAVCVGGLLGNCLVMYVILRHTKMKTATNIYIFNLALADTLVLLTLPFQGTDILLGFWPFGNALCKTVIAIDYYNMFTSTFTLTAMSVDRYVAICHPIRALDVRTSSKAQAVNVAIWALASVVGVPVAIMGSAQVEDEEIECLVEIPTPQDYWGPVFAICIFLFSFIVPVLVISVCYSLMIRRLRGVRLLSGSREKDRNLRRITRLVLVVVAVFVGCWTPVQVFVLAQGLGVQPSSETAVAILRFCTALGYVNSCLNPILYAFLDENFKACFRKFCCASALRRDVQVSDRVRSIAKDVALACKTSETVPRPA

Row | Substance | calcium mobilization, maximal effects [1] | calcium mobilization, pEC50 (pEC50 (-log10 M)) [1] | calcium mobilization, potency [2] | calcium mobilization, potency [3] | calcium mobilization, potency [4] | calcium mobilization, potency [1] | electrically stimulated mouse vas deferens, Emax (% inhibition of control twitch) [5] | electrically stimulated mouse vas deferens, pEC50 (pEC50 (-log10 M)) [5] | mouse vas deferens from NOP(+/+) mice, Emax [5] | mouse vas deferens from NOP(+/+) mice, pEC50 (pEC50 (-log10 M)) [5] | calcium mobilization, maximal effects [3] | calcium mobilization, pEC50 (pEC50 (-log10 M)) [3]
1 | dermorphin (peptide) |  |  | > 1000 nM |  | > 1000 nM | > 1000 nM |  |  |  |  | 135% | 
2 | dynorphin A (from UniProt P01213 207-223) (peptide) |  |  | > 1000 nM |  |  |  |  |  |  |  |  | 6.67
3 | nociceptin/orphanin FQ (N/OFQ) peptide (from UniProt Q13519 20-176) |  |  |  | > 1000 nM | > 1000 nM | > 1000 nM | 88 | 7.37 | 92% | 7.68 |  | 

Continued, in another order:

Row | calcium mobilization, maximal effects [1] | calcium mobilization, pEC50 (pEC50 (-log10 M)) [1] | calcium mobilization, potency [2] | calcium mobilization, potency [3] | calcium mobilization, potency [4] | calcium mobilization, potency [1] | electrically stimulated mouse vas deferens, Emax (% inhibition of control twitch) [5] | electrically stimulated mouse vas deferens, pEC50 (pEC50 (-log10 M)) [5] | mouse vas deferens from NOP(+/+) mice, Emax [5] | mouse vas deferens from NOP(+/+) mice, pEC50 (pEC50 (-log10 M)) [5] | calcium mobilization, maximal effects [3] | Substance | calcium mobilization, pEC50 (pEC50 (-log10 M)) [3]
4 | 86% | 9.57 | > 1000 nM | > 1000 nM | > 1000 nM |  |  |  |  |  |  | DPDPE (peptide) | 
5 |  |  |  | > 1000 nM | > 1000 nM | > 1000 nM | 93 | 7.78 | 91% | 7.92 |  | PWT2-N/OFQ (supramolecular aggregate of the PWT2 maleimido core with [Cys18]N/OFQ-NH2) (from UniProt Q13519 20-176) | 
